B1: M0040-A06: human antibody (Fab, IgG) that binds and inhibits MMP-14; HC SEQ ID NO: 162, LC SEQ ID NO: 163 (antibody, V domains shown)
VH: EVQLLESGGGLVQPGGSLRLSCAASGFTFSYYGMYWVRQAPGKGLEWVSSISSSGGYTDYADSVKGRFTISRDNSKNTLYLQMNSLRAEDTAVYYCARRIKYYDIEGEGAFDIWGQGTMVTVSS
VL: QDIVMTQTPPSLPVNPGEPASISCRSSQSLLHRNGYNYLDWYLQKPGQSPQLLIHLGSYRASGVPDRFSGSGSGTDFTLKISRVEAEDVGVYYCMQPLQTPFTFGPGTKVDIK
modifications: Synthetically generated peptide
B2: M0043-G02: human antibody (Fab, IgG) that binds and inhibits MMP-14; HC SEQ ID NO: 166, LC SEQ ID NO: 167 (antibody, V domains shown)
VH: EVQLLESGGGLVQPGGSLRLSCAASGFTFSWYPMFWVRQAPGKGLEWVSGIYSSGGPTDYADSVKGRFTISRDNSKNTLYLQMNSLRAEDTAVYYCAKDTLGRYYDFWSGYSYGMDVWGQGTTVTVSS
VL: QDIQMTQSPGTLSLSPGERATLSCRASQSVSSSYLAWYQQKPGQAPRLLIYGASSRATGIPDRFSGSGSGTDFTLTISRLEPEDFAVYYCQSGVTFGGGTKVEIK
modifications: Synthetically generated peptide
B3: M0038-F01: human antibody (Fab, IgG) that binds and inhibits MMP-14; HC SEQ ID NO: 156, LC SEQ ID NO: 157 (antibody, V domains shown)
VH: EVQLLESGGGLVQPGGSLRLSCAASGFTFSLYSMNWVRQAPGKGLEWVSSIYSSGGSTLYADSVKGRFTISRDNSKNTLYLQMNSLRAEDTAVYYCARGRAFDIWGQGTMVTVSS
VL: QDIQMTQSPSSLSAFVGDKVTITCRASQSVGTYLNWYQQKAGKAPELLIYATSNLRSGVPSRFSGSGSGTDFTLTINTLQPEDFATYYCQQSYSIPRFTFGPGTKVDIK
modifications: Synthetically generated peptide

Assays:
MMP-2 = target: T1, MMP-2 (Homo sapiens, UniProt P08253); assay: Cross-reactivity of anti-MMP-14 IgGs, enzymatic activity: MMP-2; type: biochemical; settings: 1 μM anti-MMP-14 IgG
T1 sequence (P08253 110-660): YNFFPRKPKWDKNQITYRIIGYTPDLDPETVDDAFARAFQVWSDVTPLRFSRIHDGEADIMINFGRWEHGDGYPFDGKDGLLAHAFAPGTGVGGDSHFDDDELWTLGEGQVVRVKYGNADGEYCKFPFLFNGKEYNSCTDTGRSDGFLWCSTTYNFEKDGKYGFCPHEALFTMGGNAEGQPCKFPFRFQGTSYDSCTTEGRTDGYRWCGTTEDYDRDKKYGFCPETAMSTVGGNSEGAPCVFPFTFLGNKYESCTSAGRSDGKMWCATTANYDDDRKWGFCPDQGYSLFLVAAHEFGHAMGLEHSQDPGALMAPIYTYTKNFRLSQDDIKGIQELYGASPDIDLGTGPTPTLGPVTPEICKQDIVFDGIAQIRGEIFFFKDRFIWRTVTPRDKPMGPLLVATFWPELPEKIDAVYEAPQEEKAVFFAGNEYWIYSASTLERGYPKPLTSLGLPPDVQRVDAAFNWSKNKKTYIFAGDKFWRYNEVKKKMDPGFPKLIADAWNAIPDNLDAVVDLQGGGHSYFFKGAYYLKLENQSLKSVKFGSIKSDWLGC
Experimental: (§1) The cross-reactivity of exemplary anti-MMP-14 IgGs and Fabs with other human MMPs and TACE (TNF-alpha converting enzyme) was examined. MMP and TACE enzymatic activity was monitored in the absence and presence of 1 μM anti-MMP-14 IgG antibody. Inhibition (Y) of activity ranged from approximately 50-80% of the reaction rate observed in the absence of antibody. “X” indicates no inhibition was observed. Cross-reactivity was not determined for MMP-17 because protein activity could not be detected.
(§2) For the studies summarized in Table 12, six anti-MMP-14 IgGs were selected for cross-reactivity testings: M0043-G02, M0040-A06, M0037-D01, M037-C09, M0038-F01, M0033-H07.

MMP-3 = MMP-3 (Homo sapiens, UniProt P08254); assay: Cross-reactivity of anti-MMP-14 IgGs, enzymatic activity: MMP-3; type: biochemical; settings: 1 μM anti-MMP-14 IgG
Experimental: as §1, §2

MMP-7 = target: T2, MMP-7 (Homo sapiens, UniProt P09237); assay: Cross-reactivity of anti-MMP-14 IgGs, enzymatic activity: MMP-7; type: biochemical; settings: 1 μM anti-MMP-14 IgG
T2 sequence (P09237 95-267): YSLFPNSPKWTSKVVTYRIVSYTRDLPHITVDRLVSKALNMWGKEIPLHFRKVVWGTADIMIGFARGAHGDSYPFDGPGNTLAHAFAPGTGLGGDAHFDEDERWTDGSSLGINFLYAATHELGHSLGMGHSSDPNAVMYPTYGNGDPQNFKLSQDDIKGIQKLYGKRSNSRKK
Experimental: as §1, §2

MMP-8 = MMP-8 (Homo sapiens, UniProt P22894); assay: Cross-reactivity of anti-MMP-14 IgGs, enzymatic activity: MMP-8; type: biochemical; settings: 1 μM anti-MMP-14 IgG
Experimental: as §1, §2

MMP-9 = MMP-9 (Homo sapiens, UniProt P14780); assay: Cross-reactivity of anti-MMP-14 IgGs, enzymatic activity: MMP-9; type: biochemical; settings: 1 μM anti-MMP-14 IgG
Experimental: as §1, §2

MMP-12 = MMP-12 (Homo sapiens, UniProt P39900); assay: Cross-reactivity of anti-MMP-14 IgGs, enzymatic activity: MMP-12; type: biochemical; settings: 1 μM anti-MMP-14 IgG
Experimental: as §1, §2

MMP-13 = MMP-13 (Homo sapiens, UniProt P45452); assay: Cross-reactivity of anti-MMP-14 IgGs, enzymatic activity: MMP-13; type: biochemical; settings: 1 μM anti-MMP-14 IgG
Experimental: as §1, §2

MMP-24 = MMP-24 (Homo sapiens, UniProt Q9Y5R2); assay: Cross-reactivity of anti-MMP-14 IgGs, enzymatic activity: MMP-24; type: biochemical; settings: 1 μM anti-MMP-14 IgG
Experimental: as §1, §2

[1] = tested on: activation of pro-MMP-2 by MMP-14 in PMA-activated HT-1080 cells; assay: Gelatin zymogram, pro-MMP-2 activation in HT-1080 cells; type: cell-based, human; settings: gelatin zymography of conditioned media after 3 days; antibodies 10 μg/ml, GM6001 10 μM
Experimental: The ability of anti-MMP-14 IgGs to inhibit the activation of pro-MMP-2 by MMP-14 was examined by gelatin zymogram experiments performed with PMA-activated HT-1080 cells. M0033-H07 and M0038-F01 were tested for their ability to inhibit MMP-14 in this assay. HT1080 cells (well-known to express MMP-14 and MMP-2) were seeded at 5×10^5 cells/well at Day 0. […] HT-1080 cells cultured in the presence of 20 ng/ml of PMA were used as a positive control.
After 3 days of incubation, conditioned media were collected and gelatinolytic activities were analyzed by gelatin zymography as described previously (Maquoi et al, J Biol Chem 2000; 275:11368-78). When HT-1080 cells are activated with a phorbol ester, pro-MMP-2 is activated into MMP-2 (lane 1).

B16F1 melanoma tumors = assay: B16F1 melanoma subcutaneous tumor growth; type: in vivo, mouse; settings: M0038-F01 10, 1 or 0.1 mg/kg Q2d IP; doxorubicin 5 mg/kg weekly IP
Text: B16F1 melanoma cells were implanted into Female C57/BL6 (CR) mice (4-6 Weeks old) mice by subcutaneous injection.

[2] = tested on: B16F1 melanoma lung metastases; assay: B16F1 melanoma metastasis model, tail vein injection; type: in vivo, mouse; settings: 10 mg/kg Q2d IP, 14 days; lungs taken day 15
Experimental: MMP-14 binding antibodies were also tested in a model of melanoma metastasis. B16F1 cells were grown in culture, harvested at 85% confluence and inoculated at 5×10^5 cells/mouse in 100 μl saline by tail vein injection. Treatment started on Day 1, post inoculation, for 14 days. […] On day 15, animals were sacrificed and lungs taken, fixed, and analyzed for the number of metastases (nodules).

PC3 prostate tumors = assay: PC3 prostate tumor growth; type: in vivo, mouse; settings: M0038-F01 10, 1 or 0.1 mg/kg Q2d IP; taxotere 10 mg/kg weekly IP; A2 10 mg/kg Q2d
Text: PC3 prostate cancer cells were implanted into male nude mice by subcutaneous injection.

[3] = tested on: Streptococcus cell wall (SCW)-induced arthritis, knee joints; assay: SCW-induced arthritis, joint swelling; type: in vivo, mouse; settings: 2, 6 or 10 mg/kg IP at day 13, 16, 20 and 23; technecium uptake
Experimental: Antigen-induced arthritis, a model of rheumatoid arthritis, was induced by intraarticular injection of Streptococcus cell wall (SCW, […]) into the knee joints of C57B16 mice at day 0, 7, 14 and 21.
Mice were assorted into groups of six animals each and treated (by IP injection) with M0038-F01 (2, 6, or 10 mg/kg), a control isotype-matched antibody (control, 20 mg/ml), or etanercept (ENBREL®, 5 mg/ml) at day 13, 16, 20, and 23. Joint swelling (measured by technecium uptake) was measured at day 15, 16, 22, 23 and 28.

Chain of MMP-12 (P39900 106-470): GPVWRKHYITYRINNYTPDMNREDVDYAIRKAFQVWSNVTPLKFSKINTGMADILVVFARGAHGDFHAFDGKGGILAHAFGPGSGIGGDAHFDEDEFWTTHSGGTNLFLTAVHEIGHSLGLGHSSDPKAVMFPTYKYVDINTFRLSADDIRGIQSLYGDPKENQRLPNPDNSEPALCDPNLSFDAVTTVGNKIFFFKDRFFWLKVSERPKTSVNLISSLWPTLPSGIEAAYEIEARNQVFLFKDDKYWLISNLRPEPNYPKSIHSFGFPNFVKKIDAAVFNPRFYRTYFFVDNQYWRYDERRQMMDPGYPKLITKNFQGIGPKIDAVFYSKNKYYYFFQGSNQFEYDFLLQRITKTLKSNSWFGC
Chain of MMP-24 (Q9Y5R2 156-645): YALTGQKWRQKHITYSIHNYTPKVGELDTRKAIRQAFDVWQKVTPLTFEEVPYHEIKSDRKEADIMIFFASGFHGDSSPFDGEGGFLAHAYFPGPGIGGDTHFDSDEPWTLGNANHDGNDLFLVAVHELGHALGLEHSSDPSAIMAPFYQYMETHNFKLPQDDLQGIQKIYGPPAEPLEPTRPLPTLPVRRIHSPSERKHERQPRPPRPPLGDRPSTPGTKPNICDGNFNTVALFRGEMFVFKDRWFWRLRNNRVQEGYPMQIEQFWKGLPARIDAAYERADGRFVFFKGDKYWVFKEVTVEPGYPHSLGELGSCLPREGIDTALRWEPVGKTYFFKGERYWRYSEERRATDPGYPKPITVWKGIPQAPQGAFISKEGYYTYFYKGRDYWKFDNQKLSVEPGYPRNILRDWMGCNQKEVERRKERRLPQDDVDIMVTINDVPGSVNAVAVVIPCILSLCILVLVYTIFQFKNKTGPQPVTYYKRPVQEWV
Chain of MMP-9 (P14780 94-707): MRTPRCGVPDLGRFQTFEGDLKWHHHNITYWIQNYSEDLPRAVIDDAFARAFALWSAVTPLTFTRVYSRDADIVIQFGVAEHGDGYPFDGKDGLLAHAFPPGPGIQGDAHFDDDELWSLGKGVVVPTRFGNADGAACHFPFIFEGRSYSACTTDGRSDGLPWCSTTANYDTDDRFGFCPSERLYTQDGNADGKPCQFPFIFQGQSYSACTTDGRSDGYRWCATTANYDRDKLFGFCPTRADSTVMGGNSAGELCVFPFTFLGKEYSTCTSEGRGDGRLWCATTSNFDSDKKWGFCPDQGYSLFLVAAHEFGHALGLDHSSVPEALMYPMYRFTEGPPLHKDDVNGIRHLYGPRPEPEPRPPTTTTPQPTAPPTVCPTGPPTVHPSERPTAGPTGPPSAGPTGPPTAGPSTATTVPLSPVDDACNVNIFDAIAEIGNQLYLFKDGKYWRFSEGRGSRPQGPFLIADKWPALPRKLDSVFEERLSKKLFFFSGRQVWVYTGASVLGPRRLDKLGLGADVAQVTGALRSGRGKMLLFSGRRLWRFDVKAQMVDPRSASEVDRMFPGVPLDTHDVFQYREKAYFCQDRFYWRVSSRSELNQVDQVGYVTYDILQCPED
Chain of MMP-8 (P22894 101-467): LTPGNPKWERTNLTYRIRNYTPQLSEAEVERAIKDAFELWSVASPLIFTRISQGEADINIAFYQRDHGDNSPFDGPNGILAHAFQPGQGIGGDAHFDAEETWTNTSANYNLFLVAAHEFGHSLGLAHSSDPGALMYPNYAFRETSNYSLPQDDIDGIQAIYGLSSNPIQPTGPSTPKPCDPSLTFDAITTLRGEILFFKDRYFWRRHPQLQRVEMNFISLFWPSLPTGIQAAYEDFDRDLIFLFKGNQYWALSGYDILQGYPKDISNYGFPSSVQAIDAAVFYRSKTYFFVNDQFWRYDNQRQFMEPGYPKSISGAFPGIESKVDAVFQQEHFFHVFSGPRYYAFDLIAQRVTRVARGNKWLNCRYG
Chain of MMP-3 (P08254 100-477): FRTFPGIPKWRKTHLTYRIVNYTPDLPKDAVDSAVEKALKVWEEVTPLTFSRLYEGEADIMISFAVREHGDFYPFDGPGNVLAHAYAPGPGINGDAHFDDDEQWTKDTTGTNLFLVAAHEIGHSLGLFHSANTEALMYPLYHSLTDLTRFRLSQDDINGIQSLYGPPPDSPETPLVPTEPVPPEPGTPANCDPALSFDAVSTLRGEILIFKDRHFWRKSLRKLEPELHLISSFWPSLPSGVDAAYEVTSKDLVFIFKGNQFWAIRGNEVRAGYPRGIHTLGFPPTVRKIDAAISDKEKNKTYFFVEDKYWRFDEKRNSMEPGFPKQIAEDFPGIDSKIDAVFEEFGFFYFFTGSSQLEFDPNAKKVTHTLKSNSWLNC

Row | Molecule | Cross reactivity: inhibition of MMP-2 activity (MMP-2) | Cross reactivity: inhibition of MMP-3 activity (MMP-3) | Cross reactivity: inhibition of MMP-7 activity (MMP-7) | Cross reactivity: inhibition of MMP-8 activity (MMP-8) | Cross reactivity: inhibition of MMP-9 activity (MMP-9) | Cross reactivity: inhibition of MMP-12 activity (MMP-12) | Cross reactivity: inhibition of MMP-13 activity (MMP-13) | Cross reactivity: inhibition of MMP-24 activity (MMP-24) | pro-MMP-2 activation by MMP-14 [1] | pro-MMP-9 expression [1] | tumor growth (B16F1 melanoma tumors) | number of lung melanoma tumors (nodules) [2] | tumor growth (tumor volume) (PC3 prostate tumors) | joint swelling [3]
1 | B1 | Y (Inhibition (Y) of activity ranged from approximately 50-80% of the reaction rate observed in the absence of antibody) | Y (Inhibition (Y) of activity ranged from approximately 50-80% of the reaction rate observed in the absence of antibody) | Y (Inhibition (Y) of activity ranged from approximately 50-80% of the reaction rate observed in the absence of antibody) | Y (Inhibition (Y) of activity ranged from approximately 50-80% of the reaction rate observed in the absence of antibody) | Y (Inhibition (Y) of activity ranged from approximately 50-80% of the reaction rate observed in the absence of antibody) | Y (Inhibition (Y) of activity ranged from approximately 50-80% of the reaction rate observed in the absence of antibody) | Y (Inhibition (Y) of activity ranged from approximately 50-80% of the reaction rate observed in the absence of antibody) | Y (Inhibition (Y) of activity ranged from approximately 50-80% of the reaction rate observed in the absence of antibody) | – | – | – | – | – | –
2 | B2 | Y (Inhibition (Y) of activity ranged from approximately 50-80% of the reaction rate observed in the absence of antibody) | – | – | – | Y (Inhibition (Y) of activity ranged from approximately 50-80% of the reaction rate observed in the absence of antibody) | Y (Inhibition (Y) of activity ranged from approximately 50-80% of the reaction rate observed in the absence of antibody) | Y (Inhibition (Y) of activity ranged from approximately 50-80% of the reaction rate observed in the absence of antibody) | Y (Inhibition (Y) of activity ranged from approximately 50-80% of the reaction rate observed in the absence of antibody) | – | – | – | – | – | –
3 | B3 | – | – | – | – | – | – | – | – | completely inhibits | No stimulation | effective in reducing tumor growth | substantially reduced the number of lung melanoma tumors | reduced in all M0038-F01 treated animals, with the 10 mg/kg dose being most effective, followed by the 1 mg/kg and 0.1 mg/kg doses | did not have an effect

Source: patent US8106168B2, “Metalloproteinase binding proteins” (Dyax Corp., priority 2005, dated 2012)
